Laboratory results: publication PMC11184549

How the values were obtained:
[1] = target: FITC-labeled DENV2 NS5 NLS_(C-term) peptide (dengue virus serotype 2 (DENV2)); assay: fluorescence polarisation
[2] = target: FITC-labeled DENV3 NS5 NLS_(C-term) peptide (dengue virus serotype 3 (DENV3)); assay: fluorescence polarisation

Sequence of human IMPα3 lacking the IMPβ-binding domain (IMPαΔIBB) (O00629 64-521, stated change not applied): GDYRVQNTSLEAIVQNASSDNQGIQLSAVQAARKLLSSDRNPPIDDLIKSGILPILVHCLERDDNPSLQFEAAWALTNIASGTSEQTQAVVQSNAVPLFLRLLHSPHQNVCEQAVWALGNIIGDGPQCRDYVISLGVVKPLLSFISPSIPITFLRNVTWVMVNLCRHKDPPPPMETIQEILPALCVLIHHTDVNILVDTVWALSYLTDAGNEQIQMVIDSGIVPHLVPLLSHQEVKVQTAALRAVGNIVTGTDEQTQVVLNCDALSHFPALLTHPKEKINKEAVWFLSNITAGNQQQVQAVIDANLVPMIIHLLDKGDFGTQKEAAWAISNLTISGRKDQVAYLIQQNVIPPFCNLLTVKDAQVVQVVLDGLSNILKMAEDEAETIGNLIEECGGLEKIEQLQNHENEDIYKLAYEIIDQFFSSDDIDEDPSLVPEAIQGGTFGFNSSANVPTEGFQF
Sequence of human IMPα7 lacking the IMPβ-binding domain (IMPαΔIBB) (O60684 73-536, stated change not applied): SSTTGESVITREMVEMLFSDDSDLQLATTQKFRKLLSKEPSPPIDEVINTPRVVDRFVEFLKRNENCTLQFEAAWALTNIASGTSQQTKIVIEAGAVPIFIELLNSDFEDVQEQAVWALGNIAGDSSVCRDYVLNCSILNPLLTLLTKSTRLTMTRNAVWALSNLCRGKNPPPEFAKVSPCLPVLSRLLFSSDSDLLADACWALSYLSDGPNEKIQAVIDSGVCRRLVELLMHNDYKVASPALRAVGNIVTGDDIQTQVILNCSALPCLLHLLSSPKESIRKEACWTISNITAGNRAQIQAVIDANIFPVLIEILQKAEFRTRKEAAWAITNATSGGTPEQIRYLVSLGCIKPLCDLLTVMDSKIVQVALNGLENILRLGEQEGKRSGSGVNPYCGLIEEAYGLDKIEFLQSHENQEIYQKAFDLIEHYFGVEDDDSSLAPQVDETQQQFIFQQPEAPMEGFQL

Substance	Kd [1]	Kd [2]
human IMPα1 lacking the IMPβ-binding domain (IMPαΔIBB) (from UniProt P52292 70-529) (domain or fragment)	90 nM	140 nM
human IMPα3 lacking the IMPβ-binding domain (IMPαΔIBB) (from UniProt O00629 64-521) (domain or fragment)	80 nM	150 nM
human IMPα7 lacking the IMPβ-binding domain (IMPαΔIBB) (from UniProt O60684 73-536) (domain or fragment)	180 nM	190 nM
